The values below come from patent US20240239894A1 (AstraZeneca / MedImmune, published 2024).

Positions count from the first letter of the chain named.

For assay [1], the target named is T1, recombinant mouse B7-H4 (tag format not stated) (mouse, UniProt Q7TSP5 25-257, limits assumed).
T1 construct: FlagHis10 or FcHis6 in the commercial antibody ELISA; also called murine B7-H4 antigen
T1 sequence (looked up): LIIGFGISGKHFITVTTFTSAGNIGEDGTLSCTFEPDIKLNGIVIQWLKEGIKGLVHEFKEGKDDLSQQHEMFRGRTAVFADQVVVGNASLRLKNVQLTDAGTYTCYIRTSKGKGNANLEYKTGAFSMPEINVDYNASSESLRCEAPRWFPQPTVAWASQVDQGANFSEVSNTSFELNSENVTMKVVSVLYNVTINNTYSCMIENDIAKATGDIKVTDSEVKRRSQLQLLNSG
Briefly: SPR. (In general: In SPR one partner is held on a chip, and binding of the other changes the refractive index at the surface.)

The target in assay [2] is T1, recombinant mouse B7-H4 (tag format not …). The assay can be described thus: SPR. This is another data set of the same source.
The target in assay [3] is T2, recombinant human B7-H4 (tag format not stated) (human, UniProt Q7Z7D3 25-259).
T2 construct: also called huB7-H4; human B7-H4 antigen
T2 sequence: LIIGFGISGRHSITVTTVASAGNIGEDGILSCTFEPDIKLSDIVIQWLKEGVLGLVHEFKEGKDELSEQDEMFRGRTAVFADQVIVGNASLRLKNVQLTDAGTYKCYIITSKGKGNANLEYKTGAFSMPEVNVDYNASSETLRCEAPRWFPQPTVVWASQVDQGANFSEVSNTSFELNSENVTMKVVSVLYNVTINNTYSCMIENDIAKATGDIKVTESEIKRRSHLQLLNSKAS
Briefly: SPR, immobilized B7-H4.

Assay [4] deals with T3, recombinant cynomolgus monkey B7-H4 (tag format not stated) (cynomolgus monkey, UniProt A0A2K5U6P5 25-259).
T3 construct: also called cyno B7-H4
T3 sequence: T2 sequence with L53I
The assay can be described thus: SPR, immobilized B7-H4.

In assay [5] the target is T4, Human B7-H4 ECD-Flag-His10 (monomeric) (human, UniProt Q7Z7D3 25-259).
T4 construct: Minimally biotinylated for KinExA; also called hB7H4-ECD-Flag-His10; B7-H4-FLAG
T4 sequence: T2 sequence
The assay can be described thus: KinExA 3200, Fab, N-curve analysis. (Kinetic exclusion samples the free partner from a solution-phase mixture.)

In assay [6] the target is T4, Human B7-H4 ECD-Flag-His10 (monomeric). The assay can be described thus: KinExA 3200, Fab at 5, 10 or 45 nM, 25 C, N-curve analysis.
Assay [7] addresses T5, Human B7-H4-Fc (Human B7H4 ECD, Fc_6His) (human).
T5 construct: also called FcHis6 tagged human B7-H4
T5 sequence (Q7Z7D3 whole entry, looked up): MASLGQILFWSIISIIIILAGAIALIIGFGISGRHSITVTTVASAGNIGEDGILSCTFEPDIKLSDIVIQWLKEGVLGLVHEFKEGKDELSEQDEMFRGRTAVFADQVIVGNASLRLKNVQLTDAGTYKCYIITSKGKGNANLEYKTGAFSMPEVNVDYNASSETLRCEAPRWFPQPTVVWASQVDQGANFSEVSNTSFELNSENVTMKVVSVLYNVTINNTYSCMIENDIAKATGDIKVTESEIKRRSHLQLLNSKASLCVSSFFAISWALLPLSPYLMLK
Briefly: ELISA on coated human B7H4/Fc, absorbance 450 nm, [IgG] 0.006 to 100 nM. A general note: In an ELISA, binding on a coated surface is turned into a signal by an enzyme label.

Assay [8] deals with T1, recombinant mouse B7-H4 (tag format not …). The assay can be described thus: ELISA, Maia format mAb (GLQ).
For assay [9], the target named is T2, recombinant human B7-H4 (tag format not …). Briefly: ELISA, Maia format mAb (GLQ).
The target of assay [10] is T1, recombinant mouse B7-H4 (tag format not …). The assay can be described thus: ELISA, Maia format mAb (GLY).
The target of assay [11] is T2, recombinant human B7-H4 (tag format not …). Briefly: ELISA, Maia format mAb (GLY).
Assay [12] deals with T6, human B7-H4 on cells (human, UniProt Q7Z7D3 25-282).
T6 sequence: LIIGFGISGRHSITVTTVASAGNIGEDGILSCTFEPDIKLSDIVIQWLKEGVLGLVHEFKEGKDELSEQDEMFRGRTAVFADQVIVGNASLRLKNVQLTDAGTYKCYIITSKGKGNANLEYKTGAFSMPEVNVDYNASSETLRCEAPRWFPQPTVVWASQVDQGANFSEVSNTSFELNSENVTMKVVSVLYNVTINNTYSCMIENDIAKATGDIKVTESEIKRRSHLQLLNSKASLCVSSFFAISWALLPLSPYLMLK
The assay can be described thus: cell-based or functional assay.

For assay [13], the target named is T6, human B7-H4 on cells. The assay can be described thus: flow cytometry on MX-1 cells (endogenous human B7-H4), MFI (geometric mean).
The target of the next assay is human FcRn (human, UniProt P55899 24-297; P61769 21-119). The assay can be described thus: SPR, steady state; steady state; human FcRn.
human FcRn, sequence (P55899 24-297 limits assumed, chain 1 of 2): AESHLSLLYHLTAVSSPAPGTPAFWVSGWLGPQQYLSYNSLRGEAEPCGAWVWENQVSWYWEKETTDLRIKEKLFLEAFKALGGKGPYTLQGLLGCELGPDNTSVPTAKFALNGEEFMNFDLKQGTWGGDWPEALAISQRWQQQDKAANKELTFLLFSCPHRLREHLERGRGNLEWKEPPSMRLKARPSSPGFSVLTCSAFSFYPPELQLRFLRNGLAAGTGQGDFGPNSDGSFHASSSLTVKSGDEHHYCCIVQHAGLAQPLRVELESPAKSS
human FcRn, sequence (P61769 21-119 limits assumed, chain 2 of 2): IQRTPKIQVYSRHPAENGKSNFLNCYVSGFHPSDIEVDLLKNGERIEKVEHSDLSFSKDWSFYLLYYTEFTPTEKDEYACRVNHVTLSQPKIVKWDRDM
A further assay concerns the target huFcγRI (human, UniProt P12314 16-288). Briefly: SPR, equilibrium KD; equilibrium KD; huFcγRI.
In assay [14] the target is T6, human B7-H4 on cells. The assay can be described thus: flow cytometry on HT29-huB7-H4 Clone 4 cells, MFI (geometric mean).
The target of assay [15] is T6, human B7-H4 on cells. The assay can be described thus: flow cytometry on MDA-MB-468 cells (endogenous human B7-H4), MFI (geometric mean).
For assay [16], the target named is T2, recombinant human B7-H4 (tag format not …). The assay can be described thus: SPR, antibody capture.
For assay [17] the target is unchanged. The assay can be described thus: DELFIA-ELISA on immobilized recombinant human B7-H4.
The target in assay [18] is T6, human B7-H4 on cells. Briefly: flow cytometry on HT29-huB7-H4 Clone 26 cells, MFI (geometric mean).
Assay [19] addresses T7, cynomolgus monkey B7-H4 on cells (cynomolgus monkey, UniProt A0A2K5U6P5 25-282).
T7 construct: whole, on cells; On HEK 293 cells; also called cynoB7-H4
T7 sequence: T6 sequence with L53I, F242L, S252A
The assay can be described thus: flow cytometry on HEK293 JI TREX cells stably expressing cynomolgus monkey B7-H4, MFI (geometric mean).

In a further assay the target is T8, murine B7-H4 on cells (mouse, UniProt Q7TSP5 25-257).
T8 construct: whole, on cells; also called muB7-H4
T8 sequence (looked up): T1 sequence (looked up)
The assay can be described thus: flow cytometry on HEK293 JI TREX cells stably expressing murine B7-H4, MFI (geometric mean).

huFcγRI, sequence (P12314 16-288 limits assumed): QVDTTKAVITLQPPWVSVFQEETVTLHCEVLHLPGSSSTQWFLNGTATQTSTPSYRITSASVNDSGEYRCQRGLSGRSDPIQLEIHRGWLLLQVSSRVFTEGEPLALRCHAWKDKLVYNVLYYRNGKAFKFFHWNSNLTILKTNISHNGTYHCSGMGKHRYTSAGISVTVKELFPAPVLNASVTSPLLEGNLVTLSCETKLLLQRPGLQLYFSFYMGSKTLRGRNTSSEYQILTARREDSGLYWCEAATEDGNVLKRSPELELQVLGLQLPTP

B1: E02_GL Fab (Fab, V domains shown)
VH: QVQLQQWGAGLLKPSETLSLACTVYGGSFSGYYWNWIRQPPGKGLEWIGEINHSGSTSYNPSLKSRVTISVDTSKNQFSLKLSSVTAADTAVYYCARVLYNWNVDSWGQGTLVTVSS
VL: DIQMTQSPSSLSASVGDRVTITCRASQDIRNDVGWYQQKPGKAPKRLIYAASRLQSGVPSRFSGSGSGTEFTLTISSLQPEDFATYYCLQHNSYPRTFGQGTKVEIK
notes: Fab of E02-GL; also called EO2_GL Fab; E02-INT Fab
Turning to B1, the “fold lower affinity than for human B7-H4 antigen” value in [1] was approximately 100 fold. The Kd (usually a measure of binding affinity in units of concentration) in [2] came out at 405 nM; in [3] it was 3.7 nM; in assay [4], 3.94 nM; in assay [5], 1.21 nM; in assay [6], 1.2 nM.

B2: E02-GL (ZY0EQD_E02, germlined) (antibody, V domains shown)
VH: B1 VH
VL: B1 VL
notes: AF647-labelled in flow cytometry; also called EQD-E02_GL; ZY0EQD-E02-GL
In the case of B2, the 50% effective concentration (EC50 (read off the curve)) (usually the concentration needed to bring the measured effect to its halfway point) in assay [7] was approximately 0.5 nM.

B3: E02-GLQ-maia (antibody, human IgG1, kappa, V domains shown)
VH: B1 VH with N52Q
VL: DIQMTQSPSSLSASVGDRVTITCRASQDIRNDVGWYQQKPGKAPKRLIYAASRLQSGVPSRFSGSGSGTEFTLTISSLQPEDFATYYCLQHNSYPRTFGQGTKVEIKR
notes: Germlined with a Q substitution, Maia format
As for B3, the binding result in [8] and in [9] was “binds” each time.

B4: E02-GLY-maia (antibody, human IgG1, kappa, V domains shown)
VH: B1 VH with N52Y
VL: B3 VL
notes: Germlined with a Y substitution, Maia format
For B4, the binding result in [10] and in assay [11] was “binds” throughout.

B5: E02-GL-SG3932 (antibody, human IgG1, kappa)
heavy: not shown
light: DIQMTQSPSSLSASVGDRVTITCRASQDIRNDVGWYQQKPGKAPKRLIYAASRLQSGVPSRFSGSGSGTEFTLTISSLQPEDFATYYCLQHNSYPRTFGQGTKVEIKRTVAAPSVFIFPPSDEQLKSGTASVVCLLNNFYPREAKVQWKVDNALQSGNSQESVTEQDSKDSTYSLSSTLTLSKADYEKHKVYACEVTHQGLSSPVTKSFNRGEC
modifications: SG3932 on native cysteines (DAR about 8 for the whole antibody); SG3932 (mal-PEG8-val-ala linker with TOP1i warhead) on native cysteines through a thiosuccinimide linkage, about 8 drugs per antibody
notes: also called E02-INT-SG3932; B7-H4 targeting TOP1i-ADC; copies: 2 + 2
Consider B5, for which, in the assay with human B7-H4 on cells [12], the “IC50, cytotoxicity (CellTiter-Glo) on HT29-huB7-H4 Clone 26” value is 0.036 g/mL (as printed; probably µg/mL). The “IC50, cytotoxicity (CellTiter-Glo) on MX-1” value in the assay with human B7-H4 on cells [12] is 0.029 µg/mL. Besides, in the assay with human B7-H4 on cells [12], the “IC50, cytotoxicity (CellTiter-Glo, 6 days) on human B7-H4 transfected Ad293 cells” value was 53.3 ng/mL. Also, the “EC50 (read off the curve)” value with human B7-H4 on cells [13] is approximately 0.1 µg/mL; in the assay with human B7-H4 on cells [14], approximately 0.07 µg/mL; with human B7-H4 on cells [15], approximately 0.08 µg/mL; with human B7-H4 on cells [18], approximately 0.1 µg/mL. For the same molecule, the dissociation constant (Kd) with human FcRn worked out at 4.36 µM; in the assay with huFcγRI, 4.35 nM; in assay [16], 29.3 nM. In addition, the koff (in general, the first-order rate constant of dissociation) in [16] is 0.0028 s⁻¹. Besides, the kon – broadly, a measure of how fast the partners come together – in [16] is 95500 M⁻¹ s⁻¹. In addition, in assay [17], the EC50 (as a rule, the concentration needed to bring the measured effect to its halfway point) amounted to 1.71 nM.

B6: E02-INT (antibody intermediate of E02-GL-SG3932) (antibody, human IgG1, kappa)
heavy: not shown
light: B5 light
notes: also called E02-GL antibody; antibody intermediate E02-INT
In the case of B6, the half-maximal effective concentration (EC50 (read off the curve)) in assay [19] was approximately 0.4 µg/mL; with murine B7-H4 on cells it was approximately 0.2 µg/mL; with human B7-H4 on cells [13], approximately 0.1 µg/mL; in the assay with human B7-H4 on cells [14] it was approximately 0.05 µg/mL; with human B7-H4 on cells [15], approximately 0.08 µg/mL; with human B7-H4 on cells [18], approximately 0.07 µg/mL. Moreover, in assay [16], the Kd worked out at 31.1 nM. Also, the koff in assay [16] is 0.00292 s⁻¹. Also, the kon in assay [16] is 93800 M⁻¹ s⁻¹. In addition, in assay [17], the concentration for a half-maximal effect (EC50) worked out at 1.98 nM.
